Target: the molecule itself
Test: small angle scattering + dynamic light scattering (PDI); results not shown; conditions not given

B1: MamK from Magnetospirillum gryphiswaldense MSR-1, C-terminal poly-histidine-tagged (natural protein, UniProt Q6NE59 1-360, looked up)
chain: MWIDLLARERSDKMSEGEGQAKNRLFLGIDLGTSHTAVMTSRGKKFLLKSVVGYPKDVIGLKLLGRPYVVGDEAFEMRSYLDLRYPLQDGVLSEISDRDIEVARHLLTHVVKSAEPGANDEICAVIGVPARASGANKALLLKMAQEVVHTALVVSEPFMVGYGLDKLNNTIIVDIGAGTTDICALKGTVPGPEDQVTLTKAGNYLDERLQNAILERHPELQMNTNVACAVKEQFSFVGARGEAATFEFRAAGKPVRCDVTESVKIACEALMPDIIESIEILLRSFQPEYQATVLQNIVFAGGGSRIRGLAAYVKDKLRPFGNADVTCVKDPTFDGCRGALRLAEELPPQYWCQLGDVSGQ
notes: MamK, actin-like protein of M. gryphiswaldense MSR-1; mamK gene (1083 bp) cut from a MamK-pGEM construct with SalI/EcoRI and sub-cloned into pET29b; purified as a 42 KDa protein; No cleavage of the tag is described; also called His-MamK; His-tagged MamK
stoichiometry N: 2 to 6
